Target: human CD20 (human) (UniProt P11836)
Assay: flow cytometry on Daudi cells (CD20-positive, CD3-negative); PE-conjugated goat anti-human IgG F(ab')2; geomean (PE)

Chain of human CD20 (human) (P11836 whole entry): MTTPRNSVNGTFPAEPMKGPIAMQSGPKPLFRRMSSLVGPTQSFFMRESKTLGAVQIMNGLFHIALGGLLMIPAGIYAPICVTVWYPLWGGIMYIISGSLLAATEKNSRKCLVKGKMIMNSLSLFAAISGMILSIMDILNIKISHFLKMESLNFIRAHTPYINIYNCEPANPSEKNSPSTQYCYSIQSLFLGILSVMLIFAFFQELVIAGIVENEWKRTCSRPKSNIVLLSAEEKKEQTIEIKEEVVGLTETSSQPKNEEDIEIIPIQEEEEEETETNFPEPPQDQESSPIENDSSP

| EC50 (read off the curve) [µg/mL] | Substance |
| --- | --- |
| 0.7 | IgG1-RTX (antibody) |
| 0.6 | IgG1-GA101 (antibody) |
